Biological target: CTLA-4 Ig functionalized with GzmB substrate (UniProt P16410)
Sequence (P16410 38-161): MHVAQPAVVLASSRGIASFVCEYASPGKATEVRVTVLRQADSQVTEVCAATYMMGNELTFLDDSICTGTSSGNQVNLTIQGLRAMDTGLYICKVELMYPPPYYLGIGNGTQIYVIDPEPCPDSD

B1: complement component S1 (enzyme, UniProt P09871 16-688, looked up, species assumed)
Complement C1s subcomponent: EPTMYGEILSPNYPQAYPSEVEKSWDIEVPEGYGIHLYFTHLDIELSENCAYDSVQIISGDTEEGRLCGQRSSNNPHSPIVEEFQVPYNKLQVIFKSDFSNEERFTGFAAYYVATDINECTDFVDVPCSHFCNNFIGGYFCSCPPEYFLHDDMKNCGVNCSGDVFTALIGEIASPNYPKPYPENSRCEYQIRLEKGFQVVVTLRREDFDVEAADSAGNCLDSLVFVAGDRQFGPYCGHGFPGPLNIETKSNALDIIFQTDLTGQKKGWKLRYHGDPMPCPKEDTPNSVWEPAKAKYVFRDVVQITCLDGFEVVEGRVGATSFYSTCQSNGKWSNSKLKCQPVDCGIPESIENGKVEDPESTLFGSVIRYTCEEPYYYMENGGGGEYHCAGNGSWVNEVLGPELPKCVPVCGVPREPFEEKQRIIGGSDADIKNFPWQVFFDNPWAGGALINEYWVLTAAHVVEGNREPTMYVGSTSVQTSRLAKSKMLTPEHVFIHPGWKLLEVPEGRTNFDNDIALVRLKDPVKMGPTVSPICLPGTSSDYNLMDGDLGLISGWGRTEKRDRAVRLKAARLPVAPLRKCKEVKVEKPTADAEAYVFTPNMICAGGEKGMDSCKGDSGGAFAVQDPNDKTKFYAAGLVSWGPQCGTYGLYTRVKNYVDWIMKTMQENSTPRED
in vitro cleavage assay: no cross-cleavage by matrix, complement, or immune proteases

Source: patent US20220185889
